Experiments:
[1] = molecular target: the molecule itself; assay: SEC-SAXS; 50 µL of CrRPI1 at 10 mg/mL on BioSEC-3 300 column in buffer C in series with the SAXS capillary (SWING, SOLEIL); molecular weight from scattering, curve fitted to the crystallographic dimer
[2] = molecular target: the molecule itself; assay: SEC; purified CrRPI1 on two different gel filtration matrices (Superose 6 increase; BioSEC-3 300), buffer C (20 mM Tris-HCl pH 7.9, 100 mmol/L NaCl); oligomer state from apparent molecular weight

B1: Chlamydomonas reinhardtii chloroplastic ribose-5-phosphate isomerase 1 (CrRPI1) (enzyme, UniProt A8IRQ1 23-269, looked up)
chain: MAAPVSTQLSQDELKKQAAWKAVEYVKSGMVVGLGTGSTAAFAVDRIGQLLKEGKLQNIVGVPTSIRTYEQALSLGIPLATLDEQPKLDVAIDGADEVDPNLDVVKGRGGALLREKMVEMASAKFVCIVDDSKLVEGLGGSKLAMPVEIVQFCHKYTLQRLANLPEVKGCEAKLRMNGDKPYVTDNSNYIVDLYFQTPIKDSQAASKAILGLDGVVDHGLFLDMVDVCIIAGATGVTVQERPNPKKH
notes: residues numbered according to UniProtKB entry A8IRQ1; Theoretical Mw of the recombinant monomer is printed as 27,551 Da; The forward primer introduces an NcoI site at the start codon; source: E. coli BL21(DE3) Rosetta-2 pLysS, purified (NiNTA)
stoichiometry N [1]: 1.78 to 2
stoichiometry N [2]: 2

Reference: PMC7589169, “High-Resolution Crystal Structure of Chloroplastic Ribose-5-Phosphate Isomerase from Chlamydomonas reinhardtii—An Enzyme Involved in the Photosynthetic Calvin-Benson Cycle” (International Journal of Molecular Sciences, 2020)
